The source of these data is the supplement of paper PMC7125110.

First the molecules themselves.
B1: glmS ribozyme (parent)
chain: AUAAAAGCGCCAGAACUACAGAAAUGUAGUUGACGAGGAGGAGGUUUAUCGAAUUUUCGGCGGAUGCCUCCAAA

± gives the standard error. For part of these data: Fewer inactive variants are shown than the library holds.

Settings in all cases: with glucosamine-6-phosphate
Variants of B1 are the subject of data set [1]. As to the kind of experiment: kcat; higher = faster cleavage; RNA array. Put shortly: (§1)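 E. coli RNA polymerase transcribed barcoded ribozyme variants in situ on sequenced MiSeq chips, which were tracked via a hybridised Cy3 probe at 37 °C. Tiles were imaged over ~14 h after glucosamine-6-phosphate (40 μM to 10 mM) in HEPES/KCl/Mg(OAc)2 buffer was flowed in. Normalised per-tile medians were fit to one- or two-exponential decays for kobs, and kcat and KM came from weighted Michaelis–Menten fits.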

Data set [2] covers variants of B1. Put plainly: self-cleavage kobs at 40 uM GlcN6P; higher = faster cleavage; RNA array. Put shortly:
as §1

Data set [3] covers variants of B1. Put plainly: self-cleavage kobs at 160 uM GlcN6P; higher = faster cleavage; RNA array. Put shortly:
as §1

Variants of B1 are the subject of data set [4]. Put plainly: self-cleavage kobs at 640 uM GlcN6P; higher = faster cleavage; RNA array. The method, boiled down:
as §1

The variants in data set [5] derive from B1. As to the kind of experiment: self-cleavage kobs at 2500 uM GlcN6P; higher = faster cleavage; RNA array. Put shortly: as §1
Data set [6] covers variants of B1. As to the kind of experiment: self-cleavage kobs at 10000 uM GlcN6P; higher = faster cleavage; RNA array. Put shortly:
as §1

The variants in data set [7] derive from B1. Put plainly: KM; higher = weaker cofactor use; RNA array. The method, boiled down: as §1

One may read the kcat as the number of substrate molecules converted per active site and unit of time at saturation. By KM is commonly meant the substrate concentration at which the rate is half of its maximum.

Turning to G40A G43C U47C C50G U65C, the kcat in data set [1] amounted to 2.52e-05 ± 1.1e-05 s⁻¹.
Consider G13U A14G, for which the kcat in data set [1] amounted to 0.00536 ± 0.0022 s⁻¹. Further, the “self-cleavage kobs at 40 uM GlcN6P” value in data set [2] worked out at 0.000124 ± 2e-05 s⁻¹. Also, the “self-cleavage kobs at 160 uM GlcN6P” value in data set [3] amounted to 0.00019 ± 7.3e-05 s⁻¹. In addition, the “self-cleavage kobs at 640 uM GlcN6P” value in data set [4] came to 0.00104 ± 0.00019 s⁻¹. Also, in data set [5], the “self-cleavage kobs at 2500 uM GlcN6P” value was determined as 0.00171 ± 0.00049 s⁻¹. Moreover, in data set [6], the “self-cleavage kobs at 10000 uM GlcN6P” value was 0.00495 ± 0.00073 s⁻¹.
Turning to C11U U30G, the kcat in data set [1] worked out at 0.00224 ± 0.00076 s⁻¹. Moreover, in data set [2], the “self-cleavage kobs at 40 uM GlcN6P” value came out at 0.0001 ± 1.4e-05 s⁻¹. The “self-cleavage kobs at 160 uM GlcN6P” value in data set [3] worked out at 0.00018 ± 2.9e-05 s⁻¹. Besides, in data set [4], the “self-cleavage kobs at 640 uM GlcN6P” value came out at 0.000444 ± 7.4e-05 s⁻¹. Moreover, the “self-cleavage kobs at 2500 uM GlcN6P” value in data set [5] was 0.00185 ± 0.00033 s⁻¹. Further, the “self-cleavage kobs at 10000 uM GlcN6P” value in data set [6] was found to be 0.00194 ± 0.00021 s⁻¹.
Consider A15G U57C, for which the kcat in data set [1] was found to be 0.000143 ± 1.4e-05 s⁻¹. Also, the KM in data set [7] came out at 2200 ± 520 µM. Moreover, in data set [4], the “self-cleavage kobs at 640 uM GlcN6P” value was found to be 2.79e-05 ± 9.6e-06 s⁻¹. Also, in data set [5], the “self-cleavage kobs at 2500 uM GlcN6P” value amounted to 8.09e-05 ± 1.2e-05 s⁻¹. Further, the “self-cleavage kobs at 10000 uM GlcN6P” value in data set [6] is 0.000113 ± 1.7e-05 s⁻¹.
As for G13C U55G, the kcat in data set [1] turned out to be 0.000125 ± 2.7e-05 s⁻¹. Further, the “self-cleavage kobs at 2500 uM GlcN6P” value in data set [5] amounted to 6.8e-05 ± 9.4e-06 s⁻¹. In addition, in data set [6], the “self-cleavage kobs at 10000 uM GlcN6P” value came to 9.6e-05 ± 1.2e-05 s⁻¹.
Regarding A33C U57A, the kcat in data set [1] amounted to 2.16e-05 ± 4.2e-06 s⁻¹.
Take U45C G66U: the kcat in data set [1] was 0.000814 ± 9.5e-05 s⁻¹. For the same variant, the KM in data set [7] amounted to 2830 ± 630 µM. Besides, the “self-cleavage kobs at 160 uM GlcN6P” value in data set [3] stood at 4.7e-05 ± 1.5e-05 s⁻¹. Moreover, the “self-cleavage kobs at 640 uM GlcN6P” value in data set [4] is 0.000151 ± 3.2e-05 s⁻¹. Moreover, the “self-cleavage kobs at 2500 uM GlcN6P” value in data set [5] was 0.000326 ± 8.3e-05 s⁻¹. The “self-cleavage kobs at 10000 uM GlcN6P” value in data set [6] is 0.000653 ± 8.2e-05 s⁻¹.
As to A6U C68G, the kcat in data set [1] was found to be 1.22e-05 ± 3e-06 s⁻¹.
On to G62A C70A, for which, in data set [1], the kcat was found to be 4.15e-05 ± 2e-05 s⁻¹. Moreover, the “self-cleavage kobs at 40 uM GlcN6P” value in data set [2] was < 1e-05 s⁻¹. Further, in data set [4], the “self-cleavage kobs at 640 uM GlcN6P” value turned out to be 7.27e-05 ± 2.4e-05 s⁻¹.
As for A39C C71U, in data set [1], the kcat is 0.00106 ± 0.00018 s⁻¹. Besides, in data set [7], the KM came out at 1570 ± 470 µM. In addition, the “self-cleavage kobs at 40 uM GlcN6P” value in data set [2] stood at 4.78e-05 ± 7.5e-06 s⁻¹. In addition, in data set [3], the “self-cleavage kobs at 160 uM GlcN6P” value was 9.02e-05 ± 1.2e-05 s⁻¹. For the same variant, the “self-cleavage kobs at 640 uM GlcN6P” value in data set [4] amounted to 0.000275 ± 3.1e-05 s⁻¹. The “self-cleavage kobs at 2500 uM GlcN6P” value in data set [5] was determined as 0.000738 ± 8.5e-05 s⁻¹. Further, the “self-cleavage kobs at 10000 uM GlcN6P” value in data set [6] turned out to be 0.000904 ± 7.4e-05 s⁻¹.
For the variant G44U U55C, in data set [1], the kcat stood at 9.04e-05 ± 3.7e-06 s⁻¹. Further, the KM in data set [7] was determined as 8390 ± 750 µM. The “self-cleavage kobs at 160 uM GlcN6P” value in data set [3] was < 1e-05 s⁻¹. In data set [6], the “self-cleavage kobs at 10000 uM GlcN6P” value was 4.92e-05 ± 1.3e-05 s⁻¹.
As for A15U G32U C67U, the kcat in data set [1] was determined as 0.000433 ± 0.00015 s⁻¹. Moreover, the “self-cleavage kobs at 640 uM GlcN6P” value in data set [4] was 3.29e-05 ± 1.4e-05 s⁻¹. For the same variant, in data set [5], the “self-cleavage kobs at 2500 uM GlcN6P” value is 6.84e-05 ± 1.9e-05 s⁻¹. In data set [6], the “self-cleavage kobs at 10000 uM GlcN6P” value was 0.000204 ± 3.8e-05 s⁻¹.
In the case of U49C C71G, the catalytic constant (kcat) in data set [1] amounted to 1.02e-05 ± 5.3e-07 s⁻¹.
Regarding G29U G41C U54G C70G, in data set [1], the kcat was 0.0128 ± 0.0056 s⁻¹. Moreover, the “self-cleavage kobs at 40 uM GlcN6P” value in data set [2] stood at 0.00037 ± 9.8e-05 s⁻¹. The “self-cleavage kobs at 640 uM GlcN6P” value in data set [4] amounted to 0.00251 ± 0.00059 s⁻¹. Moreover, the “self-cleavage kobs at 2500 uM GlcN6P” value in data set [5] stood at 0.0068 ± 0.0018 s⁻¹. Moreover, the “self-cleavage kobs at 10000 uM GlcN6P” value in data set [6] was 0.0126 ± 0.0039 s⁻¹.
For A6U G40A, the kcat in data set [1] worked out at 5.46e-05 ± 2e-06 s⁻¹. Also, the KM in data set [7] stood at 1650 ± 280 µM. Besides, the “self-cleavage kobs at 2500 uM GlcN6P” value in data set [5] stood at 3.37e-05 ± 1e-05 s⁻¹. In addition, in data set [6], the “self-cleavage kobs at 10000 uM GlcN6P” value stood at 4.67e-05 ± 7e-06 s⁻¹.
Turning to A6C A14C, the kcat in data set [1] came to 1.13e-05 ± 5.2e-07 s⁻¹. Moreover, the Michaelis-Menten constant (KM) in data set [7] came out at 5840 ± 600 µM.
As for G32A A53C, in data set [1], the kcat worked out at 0.00145 ± 0.00063 s⁻¹. The “self-cleavage kobs at 160 uM GlcN6P” value in data set [3] was found to be 8.36e-05 ± 1.6e-05 s⁻¹. Moreover, the “self-cleavage kobs at 640 uM GlcN6P” value in data set [4] was found to be 0.000126 ± 1.8e-05 s⁻¹. In addition, the “self-cleavage kobs at 2500 uM GlcN6P” value in data set [5] turned out to be 0.0004 ± 7.3e-05 s⁻¹. Besides, the “self-cleavage kobs at 10000 uM GlcN6P” value in data set [6] worked out at 0.000944 ± 0.00012 s⁻¹.
For the variant G66A C67A C71U, in data set [1], the kcat stood at 0.00289 ± 0.0012 s⁻¹. For the same variant, in data set [2], the “self-cleavage kobs at 40 uM GlcN6P” value was determined as 6.11e-05 ± 1.7e-05 s⁻¹. Besides, the “self-cleavage kobs at 640 uM GlcN6P” value in data set [4] worked out at 0.000304 ± 6.2e-05 s⁻¹. In data set [5], the “self-cleavage kobs at 2500 uM GlcN6P” value was determined as 0.00101 ± 0.00048 s⁻¹. Also, the “self-cleavage kobs at 10000 uM GlcN6P” value in data set [6] was found to be 0.002 ± 0.00029 s⁻¹.
